What was measured:
Details in all cases: 20 nM; 72 h
[1] = tested on: MCF10A; assay: one-nucleolus phenotype percent effect, hitpick validation (relative to siNT 0% and siNOL11 100%); higher = more cells with one nucleolus
Procedure: (§1)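 Primary screen hits (microRNA mimics) were re-picked and rescreened for nucleolar number in MCF10A cells (hitpick validation; percent effect relative to the siNT and siNOL11/siKIF11 controls). A secondary screen measured nucleolar rRNA biogenesis inhibition: after 72 h of transfection at 20 nM, cells were labelled 1 h with 1 mM 5-EU and nucleolar 5-EU signal was quantified, normalised to siNT (0%) and siPOLR1A (100%). Means are over n=5 (MCF10A) or n=2 (RPE-1, HeLa) biological replicates.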

[2] = tested on: MCF10A; assay: 5+ nucleoli phenotype percent effect, hitpick validation (relative to siNT 0% and siKIF11 100%); higher = more cells with five or more nucleoli
Procedure: as §1

[3] = tested on: MCF10A; assay: 5+ nucleoli phenotype percent effect (relative to siNT 0% and siKIF11 100%); higher = more cells with five or more nucleoli
Procedure: (§2)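 After 72 h, cells were fixed and stained with Hoechst and anti-fibrillarin, and nucleoli per nucleus were counted with CellProfiler. Values are plate-adjusted percent effect for the one-nucleolus and 5+ nucleoli phenotypes, normalised to siNT (0%) and to the positive controls siNOL11 or siKIF11 (100%), as the mean of biological triplicates. Percent viability is the nuclei count relative to siNT.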

[4] = tested on: MCF10A; assay: percent viability (nuclei count relative to siNT); higher = more viable cells
Procedure: as §2

[5] = tested on: MCF10A; assay: one-nucleolus phenotype percent effect (relative to siNT 0% and siNOL11 100%); higher = more cells with one nucleolus (ribosome biogenesis inhibition)
Procedure: as §2

[6] = tested on: MCF10A; assay: nucleolar rRNA biogenesis percent inhibition (5-EU; siNT 0%, siPOLR1A 100%); higher = stronger inhibition of nucleolar rRNA biogenesis
Procedure: as §1

Sequence | one-nucleolus phenotype percent effect [1] [%] | 5+ nucleoli phenotype percent effect [2] [%] | 5+ nucleoli phenotype percent effect [3] [%] | percent viability [4] [%] | one-nucleolus phenotype percent effect [5] [%] | nucleolar rRNA biogenesis percent inhibition [6] [%]
CAAAGGUAUUUGUGGUUUUUG [hsa-miR-548m] | 130 | -10.9 | -40.8 | 39.4 | 68.6 | 4.11
GAGGGCAUGCGCACUUUGUCC [hsa-miR-4761-3p] | 86.5 | 14.2 | -23.9 | 20 | 85.1 | 76
UGUGUGGAUCCUGGAGGAGGCA [hsa-miR-3911] | 129 | -10.6 | -47 | 12.9 | 70.3 | 53.8
AGGUAUUGCCACCCUUUCUAGU [hsa-miR-5681b] | 133 | -3.11 | -35.5 | 12.7 | 90.7 | 66
AGAAAGGGUGGCAAUACCUCUU [hsa-miR-5681a] | 165 | -15.4 | -33.1 | 8.23 | 114 | 76.4
CCCCACCUCCUCUCUCCUCAG [hsa-miR-1224-3p] | -32.5 | 28.1 | 97.2 | 86.7 | -25.7 | 22.4
CUGGCGGAGCCCAUUCCAUGCCA [hsa-miR-4730] | 230 | -12.7 | -43.2 | 18.2 | 118 | 91.1
GGCGACAAAACGAGACCCUGUC [hsa-miR-1273c] | 205 | -8.2 | -32.6 | 17.4 | 106 | 31.6
CGCGGGUCGGGGUCUGCAGG [hsa-miR-3621] | – | – | -3.13 | 57.8 | -5.2 | –
UACCCAGAGCAUGCAGUGUGAA [hsa-miR-1912] | – | – | -35.1 | 29.7 | 39.9 | –
AGGGCAUGUCCAGGGGGU [hsa-miR-4253] | – | – | 17.7 | 28.5 | 18.3 | –
GGUGGGAUGGAGAGAAGGUAUGAG [hsa-miR-4769-5p] | – | – | 33.7 | 77.6 | -13.3 | –
GGGUGCGGGCCGGCGGGG [hsa-miR-4466] | – | – | 12.7 | 51.3 | -13.2 | –
CAGAAGGGGAGUUGGGAGCAGA [hsa-miR-3154] | – | – | -26.4 | 17.4 | 46.1 | –
GAGCCAGUGGUGAGACAGUGA [hsa-miR-4676-5p] | – | – | -5.34 | 53.3 | -15.1 | –
UGGCGGGGGUAGAGCUGGCUGC [hsa-miR-6787-5p] | – | – | -19.2 | 23.7 | 30 | –
CUCUAGAGGGAAGCGCUUUCUG [hsa-miR-519c-5p] | – | – | -10.6 | 31.6 | 1.39 | –
UGACCCCUUCUGUCUCCCUAG [hsa-miR-6846-3p] | – | – | 10.3 | 47.5 | -13.6 | –
ACUGUUGCUAAUAUGCAACUCU [hsa-miR-367-5p] | – | – | 4.48 | 102 | -5.32 | –
AGUGGCAAAGUCUUUCCAUAU [hsa-miR-3688-5p] | – | – | -15.4 | 31.6 | 16 | –
UUCUUUGUUUUUAAUUCACAG [hsa-miR-6844] | – | – | 8.6 | 70 | -15.7 | –
CUCUAGAGGGAAGCACUUUCUC [hsa-miR-518f-5p] | – | – | 3.35 | 33.5 | 8.67 | –
AGAGAAGAAGAUCAGCCUGCA [hsa-miR-1253] | – | – | 37.9 | 84.6 | -16.8 | –
UAACGCAUAAUAUGGACAUGU [hsa-miR-3912] | – | – | 27.3 | 71.2 | -23.9 | –
CUACUUCUACCUGUGUUAUCAU [hsa-miR-3682-5p] | – | – | -33 | 25.2 | 19.8 | –
CUUCCUCGUCUGUCUGCCCC [hsa-miR-1238-3p] | – | – | -4.82 | 74.5 | 13.2 | –

Reference: the supplement of paper PMC10899765
